# From paper doi:10.1101/2025.11.22.689886 (bioRxiv, 2025)
# B1: transdermal peptide-recombinant type III collagen fusion protein (other, human)
# chain: FEGPASRPGFPGMKGHRGFDGRNGEKGETGAPGLKGENGLPGENGAPGPMGPRGAPGERGRPGLPGAAGARGNDGARGSDGQPGPPGPPGTAGFPGSPGAKGEVGPAGSPGSNGAPGQRGEPGPQGHAGAQGPPGPPGINGSPGGKGEMGPAGIPGAPGLMGARGPPGPAGANGAPGLRGGAGEPGKNGAKGEPGPRGERGEAGIPGVPGAKGEDGKDGSPGEPGANG
# Target: the molecule itself
# Assay: SEC
protein,measurement,value
B1,stoichiometry N,3
